Assay results as given in publication PMC4593522, “Development of a Radiolabeled Peptide-Based Probe Targeting MT1-MMP for Breast Cancer Detection” (PLoS ONE, 2015).
Square brackets hold non-standard residues; d marks the D form. Peptide text beside a SMILES is read from it. * marks the point of attachment. HYNIC = NNc1ccc(C(=O)*)cn1; AEEA = NCCOCCOCC(=O)O

Assay: In vitro solution stability in saline (radio-HPLC)
Type: physicochemical
Details: 0.9% physiological saline, 37°C, 100 μL tracer in 400 μL total, mean ± SD
Experimental: HYNIC-AF7p solution (20 μL, 60 μg/mL in H2O), of tricine solution (100 μL, 100 mg/mL in 25 mM succinate buffer, pH 5.0), SnCl2 solution (10 μL, 3 mg/mL in 0.1 M HCl) and Na^99mTcO4 (100 μL, 370 MBq) in saline were added into a 5 mL Eppendorf tube. The reaction mixture was kept at room temperature for 10 min. To the reaction mixture above was added 100 μL of the TPPTS solution (50 mg/mL in 25 mM succinate buffer, pH 5.0). The vial containing the reaction mixture was sealed, cramped, and heated at 90°C for 30 min. After cooling to room temperature, sample was analyzed by radio-HPLC. The radio-HPLC method used a HP Hewlett Packard Series 1100 HPLC system equipped with a Radioflow Detector LB509 and a reversed-phase Zorbax SB-C18 column (4.6 mm × 250 mm, 5 μm). The flow rate was 1 mL/min. The gradient mobile phase started with 90% solvent A (0.1% TFA in water) and 10% solvent B (0.1% TFA in acetonitrile) to 30% solvent A and 70% solvent B at 24 min to 0% solvent A and 100% solvent B at 27 min, followed with 90% solvent A and 10% solvent B at 30 min. […]
100 μL of [^99mTc]-(HYNIC-AF7P)(tricine)(TPPTS) was added to either 0.9% physiological saline or 1 mg/mL cysteine solution. […] After 1 h, 2 h, 3 h, 4 h, 5 h and 6 h incubation, the radiochemical purity for [^99mTc]-(HYNIC-AF7P)(tricine)(TPPTS) at each time point was detected by radio-HPLC as described above.

CC(C)C[C@H](NC(=O)[C@H](Cc1ccccc1)NC(=O)[C@@H](NC(=O)[C@H](CCCCN)NC(=O)[C@@H](NC(=O)[C@H](CC(N)=O)NC(=O)[C@H](Cc1c[nH]cn1)NC(=O)[C@H](CC(C)C)NC(=O)[C@H](Cc1c[nH]cn1)NC(=O)[C@H](CCCCN)NC(=O)[C@H](Cc1c[nH]c2ccccc12)NC(=O)[C@H](Cc1c[nH]cn1)NC(=O)c1ccc(NN)nc1)[C@@H](C)O)[C@@H](C)O)C(=O)NCCOCCOCC(=O)O [[^99mTc]-(HYNIC-AF7P)(tricine)(TPPTS), metal not drawn] ({HYNIC}-HWKHLHNTKTFL[AEEA]-OH)
original form (radiochemical purity) in saline (after 6 hours incubation): 93.5 ± 2.27% | original form (radiochemical purity) in saline (at the beginning): 96.8 ± 1.12%
